# Data published in the nanobody polyreactivity screen of Harvey et al. (2022).
# Test: yeast display, Sf9 membrane polyspecificity reagent, FACS + sequencing; frameworks hold sequencing errors
# Procedure, shortened: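 Galactose-induced (36–48 hours) yeast carrying a synthetic nanobody display library were exposed to 10% biotinylated, detergent-solubilized Sf9 membrane reagent at 4 °C for 1 hour. FACS followed streptavidin microbead enrichment, using low and high (top ~1%) gates for expression (anti-HA) and reagent binding (streptavidin). Colony PCR, MiSeq 2 × 250 sequencing and CDR-length filtering followed. Labels for polyreactivity reflect the gate of origin.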
row,Sequence,polyreactivity (PSR sort gate)
1,QVQLVESGGGLVQAGGSLRLSCAASGSTFKQYTMGWYRQATGKERELVAAINRGGTSTNYADSVKGRFTISRDNAKNTVYLQMNSLKPEDTAVYYCNAGYSWGRYYYWGQGTQVTVSS,low polyreactivity
2,QVQVVESGGCLVQAGGSLRLSCAASGRMFRRYAMGWYRQAPGKERELVAAISSGGSTYYADSVKGRFTISRDNAKNTVYLQMNSLKPEDTAVYYCNAKVGAYLNYGYWGQGTQVTVSS,low polyreactivity
3,QVQLVESGGGLVQAGGSLRLSCAASGRTFWFNHMGSYRQAPGKERELVAAITWNGGSTYYADSVKGRFTISRDNAKNTVYLQMNSLKPEATAVYYCARTSYARYRNGWTYDHWGQGTQVTVSS,low polyreactivity
4,QVQLVESGGGLVQAGGSLRLSCAASGLIFPSYTMGWYRQAPGKDRELVAAITFSGDSTNYADSVKGRFTISRDNAKNTVYLQMNSLKPEDTAVYNCAASQVSDTTRFGYWGQGTQVTVSS,low polyreactivity
5,QDQLVESGGGLVQAGGSLRLSCAASGSIFRAYAMGWYRQAPGKERELVAAISRSGDSTYYADSVKGRFTISRDNAKNTVYLQMNSLKPEDTAVYYCAAQRKPYVRPSGPYKRRDYWGQGTQVTVSS,high polyreactivity
6,QVQLVESGGGLVQAGGSLRLSCAASGRIFRYNAMGWYRQAPGKERELVAAISYRTGSTHYADSVKGRFTISRDNAKNTVYLQMNILKPEDTAVYYCAYVPGYCYWGQGTQVTVSS,low polyreactivity
7,QVQLVESGGGLVQAGGSLRLSCAASGRTFYDYAMGWYRQAPGKERELVAAISRRAGSTYYADSVKGRFTISRDNAKNTVYLQMNSLKPEDTAVYYCAAAYYRRWWRGHHYAFDYWGQGTQVTVSS,high polyreactivity
8,QVQLVESGGGLVQAGGSLRLSCAASGSTFHTNAMGWYRQAPGKERELVDAISRSGTSTYYADSVKGRFTISRDNAKNSVYCQMNSLNPEDTAVYYCAAYGPRVNGEIGREYYYWGQGTQVTVSS,low polyreactivity
9,KVQLVEAGGGLVQAGGSLRLSCAASGFILIYYAMGWYRQAPGKERELFAAITWSGGSTYYADSVKGRFTISRDNEKNTVYLKMNTLKQEETAVDYCAAYVGGGDSNADHDYWGQGTQVTVSA,low polyreactivity
10,QVQLVESGGGLVQAGGSLRLSCAASGSIFNGNAMGWYRQAPGKERELVAAITRRGGRTYYADSVKGRFTISRDNAKNTVYLQMNSLKPEDTAVYYCNAYSKAVQGGYYYWGQGTQVTVSS,high polyreactivity
11,QVQLVESGGGLVQAGGSLRLSCAPSGRTFNPYALGWYRPAPGKEREFVYADSVKGRFTISRDNAKNTVYLQMNSLKPEDTAVYYCAADVYPDTLHPYNYDYWGQGTQVTLSS,low polyreactivity
12,QVQLVESGGGLVQAGGSLRLSCAASGRIFAGYAMGWYRQAPGKEREFVATITSRAGNTYYADSVKGRFTISRDNAKNTVYLQMNSLKPEDTGVYYCAARSRGWAGYYYWYKDYSWGQGTQVTVSS,high polyreactivity
13,EEELVESGVGLVQAGGSLRLSCAASGRTFARNAMGWYRQAPGKERELVAGINFSGGNTYYADSVKGRFTISRDNAKNTVYLQMNSLKPEDTAVYYCAARRYWEGDYWGQGTQVTVSS,low polyreactivity
14,QVQLVESGGGLVQAGGSLRLSCAASGRIFTQYAMGWYRPPPGKERELVAAINASDGSTYADSVKGRFTISRDNAKNTVYLQMKSLKPEDTAVYYCNVTGGPYDFTRWSEFDHWGQGTQVTVSS,low polyreactivity
15,QVQLVESGGGLVQAGGSLRLSCAASGSIFYRNAMGWSRQPPGKERELVAGITTRGGSTYYADSVKGRFTISRDNAKNTVYLQMNSLKPEDTAVYYCAAVPYSRYSSSRGYWGQGTQVTVSS,high polyreactivity
16,QVQLVESGGGLVQAGGSLRLSCAASGSIFTRNALGWYRQAPGKETEFVAAISSSGVSTYYADSVKGRFTISRDNAKNTVYLQMNSLKPEDTAVYDCAARWGTKSGRFEYWGQGTQVTVSW,high polyreactivity
17,QVQLVESGAGLVQAGGSLRLSCAASGSTFSYYTMGWYRHAPGKERELVAAITSGGPTNYADSVKGRFTISRDNAKNTVYLQMNSLKPEDTAVYYCAAALYYGWGYYYWGQGTQVTVSS,low polyreactivity
18,QVQLVESGGGLVQAGGSLRLSCAASGRTFGRNAMGWYRQAPGKERELVAAITWSGGRTYYADSVKGRFSISRDNAKNTVYLQMNSLKPEDTAVYYCARGSSSISIFYRYDYWGQGTQVTVSS,high polyreactivity
19,QVQLVESGGGLVQAGGSLRLSCAASGLIFWVYTMGWYRQAPGKERELVASISWNGGSTYYADSVKGRFTISRDNAKNTVYLQMNSLKPEDTAVYYCAAGARYVQRDYWGQGTQVTVSS,low polyreactivity
20,QVQLVDSGGGLVQAGGSLRLSCAASGSTFYYNAMGWYRQAPGKERELVARISRSGGSTYADSVKGRFTISRDNAKNTVYLQMNSMKPEDTAVYYCNAVAYGTPEFTSYAVRYDYWGQGTQVTVSS,low polyreactivity
21,QVQLVESGGGLVQAGGRLRLSCAASGRTFPWNVMGWYRQAPGKERELVAAISWSSGRTYYADSVKGRFTISRDNAKNTVYLQMNSLKPDDTAVYYCAKRYRPYRGNSGNDYWGQGTQVTVSS,high polyreactivity
22,QVQLVESGGGLVQAGGSLRLSCPASGRIFTGYAMGWYRQSPGKERELVASISDSGASTYYADSVKGRFTISRDNAKNTVYLQMNSLKPEDTAVYYCAADWTLDTSYGYYADDFWGQGTQVTVSS,low polyreactivity

row,Sequence,polyreactivity (PSR sort gate)
1,QVQLVESGGALDQAGGRLPLSSAASGSIFRINAMRLYRQAPGKVRELVAAISWSGGSTYYADSVKGRFTISRDNAKNTVYLQMNSLKQEDTAVYYCADVVSKSSFDYWVQGTQVTVSS,low polyreactivity
2,QVQLVESGGGLGQSGGSLRLSCAATGSTYKYNAMGWNRTAPGKERELVPAISRGGRTNYADSVKGRFTISRDNAKNTVYFQMNILKPEDTAVYYCAKDVAGLFHVGSLYYYWGQGTQVNVSS,low polyreactivity
3,QVQLVETGGGLVQAGGSLRLSCAASGITFERYVMGWYRQAPGKERELVAVITKRGGNTYYADSVKGRFTISRDNAKNTVYLQMNSLKPEDTSVYYCATRSGRSTGDYWGQGTQVTVSS,high polyreactivity
4,QVQLVESGGGLVQAGGSLRLSCAASGSTFEDNAMGWYRQAPGKERELVAAITTGGGSTYYADSVKGRFTISRDNAKNTVYLQMNSLKPEDTAVYYCAVYRYYGFSLWYDYWGQGTLVTVSS,low polyreactivity
5,QVQLVESGGGLVQAGGSLRLSWAASSIFRTYAMGWYRQAPGKERELVAAITWSGASTNYADSVKGRFTISRDNAKNTVYLQMNSLKPEDTAVYYCNADWRYYPSFKYYYWGQGTQVTVSS,high polyreactivity
6,QVQLVESGGGLVQAGGSLRLSCAASGRTFNYNSMGWYRQAPGKERELVAAISATGGTTYYADSVKGRFTISRDNAKNTVYLQMNSLKPEDTAVYYCAADTPPYYAYWDVSFEYYYWGQGTQVTVSS,low polyreactivity
7,QVQLVESGGGLVQAGGSLRLSCAASGSTFGYNAMGWYRQSPGKERELVAAISYSGGSTYYADSVKGRFTISRDNAKNTVYLLMNSLKPEDTAVYYCAKETNRVGRYHWGQGTQVNVSS,low polyreactivity
8,QVQLVESGGGLVQAGGSLRLSCAASGRIFYAYAMGWYRQAPGKERELVAAISSSGRTYYADSVKGRFTISRDNAKNTVYLQMNSLKPEDTAVYYCAAPGSPYGYWGQGTQVTVSS,high polyreactivity
9,QVQLVDSGGGLDQAGGSLRLSCAASGLTFAYNTMGWYRQAPGKERELVADISRSAGSTYYADSVKVRFTISRDNAKNTVFLQMNSLKPDDTAVYYCNAAPYYVLYLLWSSNTYDYWGQGTQVTVSS,high polyreactivity
10,QVQLVESGGGLVQAGGSLRLSCAASGRTLWYYTMGWYRQAPGKERELVADITRGTSTNYADSVKGRFTISRDNAKNSVYLQMNSLKPEDTAVYYCNRAHGRSRYSRDYESWGQGTQVTVSS,low polyreactivity
11,QVQLVESGGCLVQAGGSLRLSCAASGSTFSRYAMGWYRQAPGKERELVAAISWGGNTYYADSVKGRFTISRDNAKNTVYLQMNSLKPEDTAGYYCNADYSSRGANYDYWGQGTQVTVSS,high polyreactivity
12,QVQLVESGGGIVHAGGSLRLSCAASGFIFDTNAMGWYRQAPGKEREMVAAITNDDSTNYADSVKGRFTISRDNAKTTVYLQMNSLKPEDTSVYYCAAYYIAQVVWPTTFHQQEYDYWGQGSQVTVSS,low polyreactivity
13,QVQLVESGGGLVQAGGSLRLSCASSGSIFGAYAMGWYRQAPGKERELVAAITSVGSTYYADSVKGRFTISRDNAKNTVYVQMNSLIPEDTAVYYCAKRQWRPTYRYGYWGQGTQVTVSS,low polyreactivity
14,QVQLVESGGGLVQAGGSLRLSCAASGSTFHRYAMGWYRQAPGKERQLVARINGSGGSTYYADSVKGRFTISRDNAKNTVYLQMNSLKPEDTAVYYCNARAVSVRASTKVPSGLYDFWGQGTQVTVSS,low polyreactivity
15,QVQLVESGGGLVQAGGSLRLICAASGSIFITYAMGWSRPAPGKERELVAAIRDSGDRTYYADSVKGRFTISRDNAKNTVYLQMNSLKPEDTAVYYCNARWQERLKYDYWGQGTQVTVSS,low polyreactivity
16,QVQLVESGGGLVQAGGSLRLSCADSVFIFYLNAMGWYRQAPRKERELVATITNRGGSTYFADSVKGRFTISRDNAKNTVYLQMNSLKPEDTAVYYCAARTRERYSKPYFYRRFGYWGQGTQVTVSS,low polyreactivity
17,QVQLVESGGGLVQAGGSLRLSSASSGSIFTDNGMGCYRHAPGKESELVAAISWRGGTYYADSVKGRFTISRDNAKNTVYLQMNSLKPEDSAVYYSAADVLRISTRLFRGPGFDSWGQGTQVTVSS,low polyreactivity
18,QVQLVESGGGLVQAGGSLRLSCAAYGLIFTHNTMGWYRQAPGKERELVAAITTSGGTTYYADSVKGRFTISRDNAKNTVYLQMNSLKPEDTAVYYCNALYLSTRSGDYWGQGTQVTVSS,high polyreactivity
19,QVQLVESGGGLVQAGGSLRLSCAASGRTFYSNAMGWYRQAPGKERELVAAISSSGARTYYADSVKGRFTISRDNAKNTVYLQMNSLKPEDTAVYYCNAPTQYRYYWGQGTQVTVSS,high polyreactivity
20,QVQLVESGGGLVHAGGSLRLSCAASGSTFVRNAMGWYRPAPGKERQLVAAITSRGGSTYYADSVKGRFTISRDNAKNTVYLQMISLKPEDTAVYYCAARFGVKRGQYDYWGQGTQVTVSS,high polyreactivity
21,QVQLEESGGGLVQAGGSLRLSCAASGSIFRRNVMGWYRQAPGKERELVAAISWSGDRTYYADSVKGRFTISRDNAKNTVYLQMNSLKPVGTAVYYCAAANASPRRYGQYDYWGQGTQVTVSS,high polyreactivity
